Reference: patent publication US20210095002A1 (Hoffmann-La Roche, published 2021)

Experiments:
[1] = biological target: T1, biotinylated murine 4-1BB Fc(kih) (murine, UniProt P20334 24-187, biotinylated); test: SPR (Biacore T200, 25 C): biotinylated murine 4-1BB Fc(kih) on SA chip, construct at 200 nM as first analyte, murine FAP at 500 nM as second analyte
T1 construct: also called immobilized murine 4-1BB
T1 sequence: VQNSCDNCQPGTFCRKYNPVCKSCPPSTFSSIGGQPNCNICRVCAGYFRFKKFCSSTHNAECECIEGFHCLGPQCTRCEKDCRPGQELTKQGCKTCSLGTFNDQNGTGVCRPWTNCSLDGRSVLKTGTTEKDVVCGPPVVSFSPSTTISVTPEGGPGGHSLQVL

murine FAP = biological target: T2, murine FAP (mouse, UniProt P97321 27-761); test: SPR simultaneous binding, figure legend (FIG. 2C)
T2 construct: also called mouse FAP
Experimental: The capacity of binding simultaneously murine 4-1BB Fc(kih) and murine FAP was assessed by surface plasmon resonance (SPR) in the manner as described in WO 2016/075278 A1. All SPR experiments were performed on a Biacore T200 at 25° C. with HBS-EP as running buffer (0.01 M HEPES pH 7.4, 0.15 M NaCl, 3 mM EDTA, 0.005% Surfactant P20, Biacore, Freiburg/Germany). Biotinylated murine 4-1BB Fc(kih) was directly coupled to a flow cell of a streptavidin (SA) sensor chip. Immobilization levels up to 600 resonance units (RU) were used.
The FAP-targeted 4-1BB constructs were passed at a concentration range of 200 nM with a flow of 30 μL/minute through the flow cells over 90 seconds and dissociation was set to zero sec. Murine FAP was injected as second analyte with a flow of 30 μL/minute through the flow cells over 90 seconds at a concentration of 500 nM. The dissociation was monitored for 120 sec. Bulk refractive index differences were corrected for by subtracting the response obtained in a reference flow cell, where no protein was immobilized.

T2 sequence (P97321 27-761 limits assumed): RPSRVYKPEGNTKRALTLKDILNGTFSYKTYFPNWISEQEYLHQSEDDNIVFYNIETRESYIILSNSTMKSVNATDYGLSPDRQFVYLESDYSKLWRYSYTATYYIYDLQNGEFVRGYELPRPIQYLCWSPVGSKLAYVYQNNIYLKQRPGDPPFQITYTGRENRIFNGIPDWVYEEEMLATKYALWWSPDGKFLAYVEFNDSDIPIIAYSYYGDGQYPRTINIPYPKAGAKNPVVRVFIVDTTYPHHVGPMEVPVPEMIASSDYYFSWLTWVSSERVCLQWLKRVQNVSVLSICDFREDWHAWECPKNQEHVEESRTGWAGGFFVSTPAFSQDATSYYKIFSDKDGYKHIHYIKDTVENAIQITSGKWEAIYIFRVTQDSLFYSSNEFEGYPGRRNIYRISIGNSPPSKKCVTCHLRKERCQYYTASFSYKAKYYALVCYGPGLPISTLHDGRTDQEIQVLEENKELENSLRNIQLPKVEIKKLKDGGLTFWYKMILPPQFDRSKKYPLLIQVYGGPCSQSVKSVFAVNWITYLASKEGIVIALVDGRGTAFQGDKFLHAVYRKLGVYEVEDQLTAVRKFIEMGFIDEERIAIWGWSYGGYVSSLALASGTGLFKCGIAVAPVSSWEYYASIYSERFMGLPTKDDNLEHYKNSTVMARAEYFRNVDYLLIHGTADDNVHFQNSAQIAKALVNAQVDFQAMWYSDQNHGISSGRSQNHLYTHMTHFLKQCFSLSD

B1: 4-1BB (MU137-1)/FAP(28H1) DAPG IgG1 2+1 (Fc-DD-VL), named muFAP-4-1BB (bispecific antibody)
heavy 1: DVQLVESGGGLVQPGRSLKLSCAASGFIFSYFDMAWVRQAPTKGLEWVASISPSGDIPYYRDSVKGRFTVSRENAKSSLYLQMDSLRSEDTATYYCARRSYGGYSELDYWGQGVMVTVSSAKTTPPSVYPLAPGSAAQTNSMVTLGCLVKGYFPEPVTVTWNSGSLSSGVHTFPAVLQSDLYTLSSSVTVPSSTWPSQTVTCNVAHPASSTKVDKKIVPRDCGCKPCICTVPEVSSVFIFPPKPKDVLTITLTPKVTCVVVAISKDDPEVQFSWFVDDVEVHTAQTKPREEQINSTFRSVSELPIMHQDWLNGKEFKCRVNSAAFGAPIEKTISKTKGRPKAPQVYTIPPPKEQMAKDKVSLTCMITNFFPEDITVEWQWNGQPAENYDNTQPIMDTDGSYFVYSDLNVQKSNWEAGNTFTCSVLHEGLHNHHTEKSLSHSPGGGGGSGGGGSGGGGSGGGGSEIVLTQSPGTLSLSPGERATLSCRASQSVSRSYLAWYQQKPGQAPRLLIIGASTRATGIPDRFSGSGSGTDFTLTISRLEPEDFAVYYCQQGQVIPPTFGQGTKVEIK
heavy 2: DVQLVESGGGLVQPGRSLKLSCAASGFIFSYFDMAWVRQAPTKGLEWVASISPSGDIPYYRDSVKGRFTVSRENAKSSLYLQMDSLRSEDTATYYCARRSYGGYSELDYWGQGVMVTVSSAKTTPPSVYPLAPGSAAQTNSMVTLGCLVKGYFPEPVTVTWNSGSLSSGVHTFPAVLQSDLYTLSSSVTVPSSTWPSQTVTCNVAHPASSTKVDKKIVPRDCGCKPCICTVPEVSSVFIFPPKPKDVLTITLTPKVTCVVVAISKDDPEVQFSWFVDDVEVHTAQTKPREEQINSTFRSVSELPIMHQDWLNGKEFKCRVNSAAFGAPIEKTISKTKGRPKAPQVYTIPPPKKQMAKDKVSLTCMITNFFPEDITVEWQWNGQPAENYKNTQPIMKTDGSYFVYSKLNVQKSNWEAGNTFTCSVLHEGLHNHHTEKSLSHSPGGGGGSGGGGSGGGGSGGGGSEVQLLESGGGLVQPGGSLRLSCAASGFTFSSHAMSWVRQAPGKGLEWVSAIWASGEQYYADSVKGRFTISRDNSKNTLYLQMNSLRAEDTAVYYCAKGWLGNFDYWGQGTLVTVSS
light: DIQMTQSPASLSASLEEIVTITCQASQDIGNWLAWYHQKPGKSPQLLIYGTSSLADGVPSRFSGSSSGSQYSLKISRLQVEDIGIYYCLQAYGAPWTFGGGTKLELKRADAAPTVSIFPPSSEQLTSGGASVVCFLNNFYPKDINVKWKIDGSERQNGVLNSWTDQDSKDSTYSMSSTLTLTKDEYERHNSYTCEATHKTSTSPIVKSFNRNEC
notes: Mouse IgG1 DAPG (D265A, P329G) with DDKK heterodimerisation; It has two anti-mouse-4-1BB Fabs (MU137-1) and one anti-FAP (28H1) VH/VL fused to the Fc C-termini; also called mouse surrogate muFAP-4-1BB; murine bispecific FAP-4-1BB antibody
B1: binds [1]; binds (murine FAP).
